In general, Kd refers to a measure of binding affinity in units of concentration.

Test [1] has as its target T1, human SEZ6L2 on cells (293-SEZ6L2, HEK 293 cells transfected with human SEZ6L2, and SEZ6L2-expressing tumor … (human, UniProt Q6UXD5 28-910)).
T1 construct: Tumor cell lines express the endogenous protein; also called hSEZ6L2
In words: immunofluorescence and flow cytometry on HEK 293 cells transfected with human SEZ6L2 against untransfected cells.

Test [2] addresses T2, human SEZ6 on cells (293-SEZ6) (human, UniProt Q53EL9 20-994).
T2 construct: whole, on cells; also called Seizure Protein 6 Homolog
T2 sequence (looked up): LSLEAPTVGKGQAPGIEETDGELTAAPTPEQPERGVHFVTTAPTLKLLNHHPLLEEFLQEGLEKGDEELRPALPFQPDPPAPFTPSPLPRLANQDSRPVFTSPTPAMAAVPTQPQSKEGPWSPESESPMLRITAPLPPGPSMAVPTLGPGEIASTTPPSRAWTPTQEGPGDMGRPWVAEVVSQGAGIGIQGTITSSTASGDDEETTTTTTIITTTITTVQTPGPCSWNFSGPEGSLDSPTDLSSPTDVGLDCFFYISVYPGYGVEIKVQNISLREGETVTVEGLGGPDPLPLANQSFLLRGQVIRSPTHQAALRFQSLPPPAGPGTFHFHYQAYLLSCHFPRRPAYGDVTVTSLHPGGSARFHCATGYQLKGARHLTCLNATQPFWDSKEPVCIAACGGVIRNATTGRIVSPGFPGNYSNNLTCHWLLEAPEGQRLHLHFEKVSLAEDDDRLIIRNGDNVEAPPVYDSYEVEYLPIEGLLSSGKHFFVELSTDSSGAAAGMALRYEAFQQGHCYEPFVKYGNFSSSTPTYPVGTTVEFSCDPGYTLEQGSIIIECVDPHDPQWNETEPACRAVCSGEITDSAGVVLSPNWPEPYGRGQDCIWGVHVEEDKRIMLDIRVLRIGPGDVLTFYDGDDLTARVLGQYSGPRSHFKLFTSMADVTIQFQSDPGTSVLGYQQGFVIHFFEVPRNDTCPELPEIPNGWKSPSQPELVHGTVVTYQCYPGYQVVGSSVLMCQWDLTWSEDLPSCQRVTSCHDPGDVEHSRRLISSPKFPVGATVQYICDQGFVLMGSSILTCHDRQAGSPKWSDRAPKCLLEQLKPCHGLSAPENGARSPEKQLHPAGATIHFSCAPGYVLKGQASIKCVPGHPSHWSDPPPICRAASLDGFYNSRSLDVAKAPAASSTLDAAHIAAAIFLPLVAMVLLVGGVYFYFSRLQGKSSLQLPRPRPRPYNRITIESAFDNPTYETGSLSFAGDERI
As to the kind of experiment: flow cytometry on live 293-SEZ6 cells, Alexa Fluor 488 anti-human IgG secondary [continued), panel H]. For orientation: In flow cytometry, cells or beads pass a laser one at a time.

In test [3] the target is T3, human SEZ6L on cells (293-SEZ6L) (human, UniProt Q9BYH1 29-1024).
T3 construct: whole, on cells; also called Seizure 6-like Protein
T3 sequence (looked up): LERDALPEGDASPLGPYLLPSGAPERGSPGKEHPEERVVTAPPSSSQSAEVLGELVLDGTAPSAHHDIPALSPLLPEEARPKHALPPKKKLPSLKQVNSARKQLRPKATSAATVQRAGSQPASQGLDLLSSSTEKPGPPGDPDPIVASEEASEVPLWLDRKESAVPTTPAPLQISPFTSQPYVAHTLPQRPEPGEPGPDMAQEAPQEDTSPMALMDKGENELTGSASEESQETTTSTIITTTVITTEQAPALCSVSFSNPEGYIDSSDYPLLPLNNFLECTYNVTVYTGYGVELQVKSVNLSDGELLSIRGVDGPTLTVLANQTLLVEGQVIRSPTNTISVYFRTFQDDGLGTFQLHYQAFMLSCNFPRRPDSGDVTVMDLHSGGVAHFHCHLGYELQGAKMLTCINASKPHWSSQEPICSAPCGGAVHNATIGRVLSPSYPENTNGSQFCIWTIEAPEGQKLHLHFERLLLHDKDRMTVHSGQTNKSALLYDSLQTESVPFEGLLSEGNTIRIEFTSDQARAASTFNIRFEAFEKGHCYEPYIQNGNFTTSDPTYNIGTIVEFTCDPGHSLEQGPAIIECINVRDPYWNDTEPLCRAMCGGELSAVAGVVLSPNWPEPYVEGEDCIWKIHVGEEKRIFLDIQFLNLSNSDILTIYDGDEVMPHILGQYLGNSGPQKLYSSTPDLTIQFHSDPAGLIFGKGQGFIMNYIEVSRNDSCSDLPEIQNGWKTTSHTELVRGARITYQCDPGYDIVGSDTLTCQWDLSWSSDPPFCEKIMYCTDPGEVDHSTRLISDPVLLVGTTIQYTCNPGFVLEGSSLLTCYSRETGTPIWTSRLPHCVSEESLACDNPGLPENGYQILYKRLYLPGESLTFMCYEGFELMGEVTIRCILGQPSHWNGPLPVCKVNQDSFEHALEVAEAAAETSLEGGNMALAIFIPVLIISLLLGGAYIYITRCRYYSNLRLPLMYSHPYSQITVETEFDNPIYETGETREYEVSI
As to the kind of experiment: flow cytometry on live 293-SEZ6L cells, Alexa Fluor 488 anti-human IgG secondary [continued), panel H].

Test [4] concerns the target T1, human SEZ6L2 on cells (293-SEZ6L2, HEK …). In words: flow cytometry on live 293-SEZ6L2 cells, primary antibody 1 ug/ml, Alexa Fluor 488 anti-human IgG secondary [continued), panel H].
Test [5] concerns the target T2, human SEZ6 on cells (293-SEZ6). As to the kind of experiment: flow cytometry on live 293-SEZ6 cells, Alexa Fluor 488 anti-human IgG secondary [continued), panel G].
Test [6] concerns the target T1, human SEZ6L2 on cells (293-SEZ6L2, HEK …). As to the kind of experiment: flow cytometry on live 293-SEZ6L2 cells, primary antibody 1 ug/ml, Alexa Fluor 488 anti-human IgG secondary [continued), panel G].
The target of test [7] is T3, human SEZ6L on cells (293-SEZ6L). As to the kind of experiment: flow cytometry on live 293-SEZ6L cells, Alexa Fluor 488 anti-human IgG secondary [continued), panel G].
Test [8] has as its target T2, human SEZ6 on cells (293-SEZ6). As to the kind of experiment: flow cytometry on live 293-SEZ6 cells, Alexa Fluor 488 anti-human IgG secondary [continued), panel I].
In test [9] the target is T4, recombinant cynomolgus monkey SEZ6L2 (cynomolgus monkey, UniProt G7Q0V6 28-844).
T4 construct: The construct is not described; also called cynomolgus monkey SEZL2
As to the kind of experiment: BLI (ForteBio Octet Red96), antibody on Protein A biosensors, recombinant target protein in solution. On the technique in general: Biolayer interferometry detects binding as a change in optical thickness at a sensor tip.

Test [10] concerns the target T5, recombinant human SEZ6L2 (extracellular portion of human SEZ6L2 fused to six C-terminal histidine-tag repeats) (human, UniProt Q6UXD5 28-844).
T5 construct: also called SEZ6L2-his; recombinant SEZ6L2
The test is described as above.

In test [11] the target is T3, human SEZ6L on cells (293-SEZ6L). As to the kind of experiment: flow cytometry on live 293-SEZ6L cells, Alexa Fluor 488 anti-human IgG secondary [continued), panel I].
Test [12] deals with T2, human SEZ6 on cells (293-SEZ6). As to the kind of experiment: flow cytometry on live 293-SEZ6 cells, Alexa Fluor 488 anti-human IgG secondary [panel A].
Test [13] deals with T3, human SEZ6L on cells (293-SEZ6L). In words: flow cytometry on live 293-SEZ6L cells, Alexa Fluor 488 anti-human IgG secondary [panel A].
In test [14] the target is T1, human SEZ6L2 on cells (293-SEZ6L2, HEK …). As to the kind of experiment: flow cytometry on live 293-SEZ6L2 cells, primary antibody 1 ug/ml, Alexa Fluor 488 anti-human IgG secondary [continued), panel F].
The target of test [15] is T3, human SEZ6L on cells (293-SEZ6L). In words: flow cytometry on live 293-SEZ6L cells, Alexa Fluor 488 anti-human IgG secondary [continued), panel F].
Test [16] addresses T2, human SEZ6 on cells (293-SEZ6). In words: flow cytometry on live 293-SEZ6 cells, Alexa Fluor 488 anti-human IgG secondary [continued), panel F].

T1 sequence (Q6UXD5 28-910): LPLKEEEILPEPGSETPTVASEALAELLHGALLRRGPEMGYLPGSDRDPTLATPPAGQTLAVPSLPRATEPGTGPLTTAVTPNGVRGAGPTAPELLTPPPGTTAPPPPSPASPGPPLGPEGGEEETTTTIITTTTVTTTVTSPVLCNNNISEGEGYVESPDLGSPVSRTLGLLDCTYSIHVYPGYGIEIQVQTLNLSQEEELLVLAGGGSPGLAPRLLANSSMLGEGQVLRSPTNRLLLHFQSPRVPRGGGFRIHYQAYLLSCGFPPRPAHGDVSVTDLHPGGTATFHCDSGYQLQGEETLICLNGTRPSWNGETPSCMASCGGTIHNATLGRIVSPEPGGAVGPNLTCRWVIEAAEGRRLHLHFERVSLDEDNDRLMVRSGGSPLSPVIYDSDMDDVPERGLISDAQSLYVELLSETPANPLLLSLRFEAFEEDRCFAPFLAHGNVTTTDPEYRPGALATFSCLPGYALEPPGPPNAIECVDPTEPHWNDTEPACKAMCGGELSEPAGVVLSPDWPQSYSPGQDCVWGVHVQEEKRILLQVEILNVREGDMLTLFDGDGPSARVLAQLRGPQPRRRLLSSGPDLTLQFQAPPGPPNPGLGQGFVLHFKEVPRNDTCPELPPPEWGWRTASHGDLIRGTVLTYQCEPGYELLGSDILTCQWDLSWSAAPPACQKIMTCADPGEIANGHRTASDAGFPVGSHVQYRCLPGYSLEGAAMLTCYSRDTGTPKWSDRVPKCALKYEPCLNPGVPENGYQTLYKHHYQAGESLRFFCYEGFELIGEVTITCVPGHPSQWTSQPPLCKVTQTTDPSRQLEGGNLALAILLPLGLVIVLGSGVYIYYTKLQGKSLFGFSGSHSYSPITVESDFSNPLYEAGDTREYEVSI
T5 sequence (Q6UXD5 other isoform, or with tags, fused parts or gaps): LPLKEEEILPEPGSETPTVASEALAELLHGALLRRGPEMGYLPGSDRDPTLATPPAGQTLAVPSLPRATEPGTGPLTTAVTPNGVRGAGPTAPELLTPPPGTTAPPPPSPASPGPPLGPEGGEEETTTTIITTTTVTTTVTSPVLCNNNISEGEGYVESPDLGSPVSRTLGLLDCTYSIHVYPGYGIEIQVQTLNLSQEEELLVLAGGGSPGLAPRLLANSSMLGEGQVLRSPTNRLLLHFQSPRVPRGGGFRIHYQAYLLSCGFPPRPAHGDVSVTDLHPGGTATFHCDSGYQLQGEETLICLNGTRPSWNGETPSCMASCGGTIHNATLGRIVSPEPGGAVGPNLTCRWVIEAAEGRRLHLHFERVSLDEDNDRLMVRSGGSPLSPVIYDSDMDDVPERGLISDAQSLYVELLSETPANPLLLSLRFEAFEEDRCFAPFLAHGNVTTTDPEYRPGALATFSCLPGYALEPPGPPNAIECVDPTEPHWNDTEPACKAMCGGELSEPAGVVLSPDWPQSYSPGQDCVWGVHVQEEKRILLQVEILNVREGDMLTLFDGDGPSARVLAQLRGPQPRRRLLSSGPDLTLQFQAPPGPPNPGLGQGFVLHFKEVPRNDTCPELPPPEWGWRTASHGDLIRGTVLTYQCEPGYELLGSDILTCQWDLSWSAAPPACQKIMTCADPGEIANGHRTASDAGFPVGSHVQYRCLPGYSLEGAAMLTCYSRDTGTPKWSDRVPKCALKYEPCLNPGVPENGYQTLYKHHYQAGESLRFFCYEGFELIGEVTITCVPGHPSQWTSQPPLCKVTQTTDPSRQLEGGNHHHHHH

B1: murine anti-SEZ6L2 antibody mu3E2 (antibody, V domains shown)
VH: EVLLVESGGRLVQPKGSLKLSCAASGFSFNTITMNWVRQAPGKGLEWVARIRSKSNNYATYYADAVKDRFTISRDDSQSMLYLQMNNLKTEDTAMYFCVRGIFSGYVYAMDYWGQGTTLTVSS
VL: DVVMTQSPLSLPVSVGDQASISCRSSQSIVHSNGNTYLEWYLQKPGQSPKVLIYKVSNRFSGVPDRFSGSGSGTDFTLKISRVEAEDLGVYYCFQGSHVPYTFGGGTKLEIK
notes: Mouse hybridoma antibody
As to B1, the binding result in [1] is given as “binds”.

B2: human anti-SEZ6L2 antibody 3B6 (antibody, V domains shown)
VH: QVQLVQSGAEVKKPGASVKVSCKASGYTFTAYYMHWVRQAPGQGLEWMGWINPNSGGTNYAQKFQGRVTMTRDTSIDTAYLDLSRLRSDDTAVYYCAKDSGYDWYFDIWGRGTLVTVSS
VL: EIVLTQSPATLSLSPGERATLSCRASQNISSYLAWYQQKPGQAPRLLIYDASNRATGIPARFSGSGSGTDFTLTISSLEPEDFAVFYCQQHSNWPPLTFGGGTKVEIKR
notes: Fully human antibody from H2L2 mice
As to B2, the binding result is “no binding (tested: 1 ug/ml)” in test [2], “no binding (tested: 1 ug/ml)” in test [3] and “binds” in test [4].

B3: murine anti-SEZ6L2 antibody mu2E4 (antibody, V domains shown)
VH: EVKLVESGGVLVKPGGSLKLSCAASGFTFSKYAMSWVRQTPEKRLEWVATISSGGSYTYYPDSVKGRFTISRDNARNTLYLQMSSLRSEDTAIYYCTREGGYDEGYAMDYWGQGTTLTVS
VL: DVVMTQTPLSLPVSLGDQASISCRSSQSLVHSYGNTYLHWYLQKPGQSPKLLIYKVSNRFSGVPDRFSGSGSGTDFTLKISRVEAEDLGVYFCSQSTHFRTFGGGTKLEIK
notes: Mouse hybridoma antibody
Regarding B3, in test [1], the binding result was “binds”.

B4: human anti-SEZ6L2 antibody 3B3 (antibody, V domains shown)
VH: EVQLVESGGGLVQPGGSLRLSCAASGFTFSSYWMSWVRQAPGKGLEWVANIKQDGSEKYYVDSVKGRFTISRDNAKNSLYLQMNSLRAEDTAVYYCARGGGSYAFDYWGQGTLVTVSS
VL: not shown
notes: as for B2
Take B4: the binding result in [5] was “no binding (tested: 1 ug/ml)”; in test [6], “binds”; in test [7] it was “no binding (tested: 1 ug/ml)”.

B5: humanized anti-SEZ6L2 antibody 2E4 (antibody, human IgG1, V domains shown)
VH: EVKLVESGGVLVKPGGSLRLSCAASGFTFSKYAMSWVRQAPGKGLEWVSTISSGGSYTYYPDSVKGRFTISRDNARNSLYLQMNSLRAEDTAIYYCTREGGYDEGYAMDYWGQGTTVTVSS
VL: DIVMTQSPDSLAVSLGERATINCRSSQSLVHSYGNTYLHWYQQKPGQPPKLLIYKVSNRFSGVPDRFSGSGSGTDFTLTISSLQAEDVAVYFCSQSTHFRTFGGGTKVEIKR
notes: also called 2E4:4D2
B5: the binding result in test [8] and in test [11] was “no binding (tested: 1 ug/ml)” each time. The Kd came out at 12 nM in test [9] and 7 nM in [10].

B6: human anti-SEZ6L2 antibody 1A1 (antibody, V domains shown)
VH: QVQLVQSGAEVKKPGASVKVSCKASGYTFTGYYMFWVRQAPGQGLEWLGWINPNSGGTDYAQKFQGRVTMTRDTSISTAYMELSRLRSDDTAVYYCARDSGYDWFFDYWGQGTLVTVSS
VL: not shown
notes: Fully human antibody from H2L2 mice, expressed recombinantly; it was captured on Protein A and detected with anti-human IgG
As to B6, the binding result in [12] and in [13] was “no binding (tested: 1 ug/ml)” each time. The Kd in [9] and in [10] was 1 nM in each case.

B7: human anti-SEZ6L2 antibody 3B1 (antibody, V domains shown)
VH: QVQLVESGGGVVQPGRSLRLTCVVSGFAFSSYGMHWVRQAPGKGLEWVAVIWYDGSNKYYADSVKGRFTISRDNSKNTLYLQMNSLRAEDTAVYYCASLDYYGSGSRFDPWGQGTLVTVSS
VL: not shown
notes: as for B2
Take B7: the binding result in [14] is “binds”; in test [15], “no binding (tested: 1 ug/ml)”; in test [16], “no binding (tested: 1 ug/ml)”.

The values are drawn from patent publication US20210130454A1 (BLUEFIN BIOMEDICINE, published 2021).
